Measured values from patent US20220144911A1 (UAB RESEARCH FOUNDATION, published 2022).

Tests used:
cellular RhIL10 [1] = target: T1, cellular RhIL10 (rhesus macaque, UniProt P51496 19-178); experiment: SPR, ratio of KD values
T1 construct: also called Rhesus IL10
Method: (§1) Following the association phase, dissociation was monitored for 720 seconds. The binding parameters were extracted from the sensorgrams by fitting the data to a 1:1 binding model.
(§2) Surface Plasmon Resonance (SPR): SPR data collection and analysis was performed using a Biacore T-200 (GE healthcare). […] Sensorgrams were fit to appropriate models using Biacore T-200 evaluation software version 1.0.

RhCMVIL10 = RhCMVIL10 (rhesus cytomegalovirus (printed as …))
cellular RhIL10 [2] = target: T1, cellular RhIL10; experiment: SPR (Biacore T-200), RhIL10R1-FC captured by anti-human FC, IL10 as analyte, 1:1 model
Method: as §1, §2

T1 sequence (P51496 19-178 limits assumed): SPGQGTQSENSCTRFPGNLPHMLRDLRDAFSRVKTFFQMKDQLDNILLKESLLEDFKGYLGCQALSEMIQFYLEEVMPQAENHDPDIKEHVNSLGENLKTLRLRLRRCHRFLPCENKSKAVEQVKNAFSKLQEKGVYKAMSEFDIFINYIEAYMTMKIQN
Chain of RhCMVIL10 (rhesus cytomegalovirus (printed as …)) (P51496 whole entry): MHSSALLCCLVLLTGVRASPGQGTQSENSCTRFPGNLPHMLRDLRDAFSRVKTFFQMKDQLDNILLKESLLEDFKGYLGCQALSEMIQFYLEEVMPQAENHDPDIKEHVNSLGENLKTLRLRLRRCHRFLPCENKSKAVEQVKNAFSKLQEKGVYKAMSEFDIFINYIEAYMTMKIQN

B1: RhIL10R1-FC-SLS (Fc fusion)
chain: AHGTELPSPPSVWFEAEFFHHILHWTPIPNQSESTCYEVALLRYGTGRWNSISNCSQALSYDLTAVTLDLYRSNGYWARVRAVDGSRHSNWTVTNTRFSLDEVTLTVGSVKLEIHNGFILGKIQPPRPKMAPANDTYESIFRHFREYEIAIRKVPGNFTFTHKKVKHENFSLLTSGEVGEFCVQVKPSVTSRTNKGMWSKEECVSLTRQYFTVTNVGSGGGGPSVFLFPPKPKDTLMISRTPEVTCVVVDVSQEDPDVKFNWYVNGAEVHHAQTKPRETQYNSTYRVVSVLTVTHQDWLNGKEYTCKVSNKALPAPIQKTISKDKGQPREPQVYTLPPSREELTKNQVSLTCLVKGFYPSDIVVEWESSGQPENTYKTTPPVLDSDGSYFLYSKLTVDKSRWQQGNVFSCSVMHEALHNHYTQKSLSLSGGCGTPGK
notes: also called RhIL10R1-SLS; Rh10R1-FC
B1 was tested, and the “fold greater affinity than 1F11” value (cellular RhIL10 [1]) was 4.8 fold, the Kd (RhCMVIL10) was 0.0724 nM and the koff (RhCMVIL10) was 0.00017 s⁻¹. For the same binder, the kon (RhCMVIL10) was 2.35e+06 M⁻¹ s⁻¹, the Kd (cellular RhIL10 [2]) was 0.136 nM and the koff (cellular RhIL10 [2]) was 0.000454 s⁻¹. The kon (cellular RhIL10 [2]) was 3.35e+06 M⁻¹ s⁻¹.
